Results from article PMC6100724, “Proteome‐wide analysis of phospho‐regulated PDZ domain interactions” (Molecular Systems Biology, 2018).
Square brackets hold non-standard residues; d marks the D form. Ends that are not written are not given here. * marks the point of attachment. FITC = O=C1OC2(c3ccc(O)cc3Oc3cc(O)ccc32)c2ccc(NC(=S)*)cc21; pS = N[C@@H](COP(=O)(O)O)C(=O)O

T1: FITC-RLTETRL (RPS6KA2 peptide, phosphomimetic at p-3) (human, S730E (stands in the printed letters))
T1 construct: also called phosphomimetic RPS6KA2; source: synthetic peptide, bought: GeneCust
T1 peptide: {FITC}-RLTETRL

T2: FITC-KREFIESNV (TANC1 peptide, phosphomimetic at p-6) (human, Ser to Glu at p-6 (stands in the printed letters))
T2 construct: also called phosphomimetic TANC1; source: synthetic peptide, bought: GeneCust
T2 peptide: {FITC}-KREFIESNV

T3: FITC-KRpSFIESNV (TANC1 peptide, phosphorylated at p-6) (human)
T3 construct: C-terminal peptide of human TANC1; also called TANC1 phosphopeptide; source: synthetic peptide, bought: GeneCust
T3 peptide: {FITC}-KR[pS]FIESNV

T4: FITC-HTNETpSL (MCC peptide, phosphorylated at p-1) (human)
T4 construct: C-terminal peptide of human MCC; also called pMCC; source: synthetic peptide, bought: GeneCust
T4 peptide: {FITC}-HTNET[pS]L

T5: FITC-RLTpSTRL (RPS6KA2 peptide, phosphorylated at p-3) (human)
T5 construct: C-terminal peptide of human RPS6KA2; source: synthetic peptide, bought: GeneCust
T5 peptide: {FITC}-RLT[pS]TRL

B1: DLG1 PDZ2 (His-tagged, aa 311-407) (domain or fragment, human, UniProt Q12959 311-407, looked up)
chain: KPVSEKIMEIKLIKGPKGLGFSIAGGVGNQHIPGDNSIYVTKIIEGGAAHKDGKLQIGDKLLAVNNVCLEEVTHEEAVTALKNTSDFVYLKVAKPTS
notes: human DLG1, PDZ2, aa 311-407, in a modified pRSET vector; also called DLG PDZ2; source: E. coli BL21 Gold (DE3), purified (Ni2+ Sepharose), dialysed
B2: Scribble PDZ1 (His-tagged, aa 719-829) (domain or fragment)
chain: not shown
notes: human Scribble, PDZ1, aa 719-829, in pETM-11; Used for MST and ITC; removal of the His tag is told only for the NMR samples; also called Scribble PDZ1 wild type; source: E. coli BL21 Gold (DE3), purified (Ni2+ Sepharose), dialysed
B3: MKRLTpSTRL (RPS6KA2 peptide, phosphorylated at p-3, unlabelled) (peptide)
peptide: MKRLT[pS]TRL
notes: C-terminal peptide of human RPS6KA2; also called phospho-RPS6KA2; pRPS6KA2; source: synthetic peptide, bought: GeneCust
B4: SHANK1 PDZ (aa 652-761, His-GST tag removed) (domain or fragment, human, UniProt Q9Y566 652-761, looked up)
chain: GPGSDYIIKEKTVLLQKKDSEGFGFVLRGAKAQTPIEEFTPTPAFPALQYLESVDEGGVAWRAGLRMGDFLIEVNGQNVVKVGHRQVVNMIRQGGNTLMVKVVMVTRHPD
notes: human Shank1, PDZ, aa 652-761, in pETM-33; also called untagged SHANK1 PDZ; source: E. coli BL21 Gold (DE3), purified (Ni2+ Sepharose), tag removed with HRV3C protease

Tests used:
Details in all cases: both partners purified
[1] = target: T1, FITC-RLTETRL (RPS6KA2 peptide, …); experiment: MST; FITC-labeled peptide fixed at 25-50 nM, protein (Scribble PDZ1 or DLG1 PDZ2) in a 1:1 dilution series; 50 mM Tris-HCl pH 7.4, 0.1% Tween-20; thermophoresis and T-Jump signal; n = 3
[2] = target: T2, FITC-KREFIESNV (TANC1 peptide, …); experiment: as above
[3] = target: T3, FITC-KRpSFIESNV (TANC1 peptide, …); experiment: as above
[4] = target: T4, FITC-HTNETpSL (MCC peptide, …); experiment: as above
[5] = target: T5, FITC-RLTpSTRL (RPS6KA2 peptide, …); experiment: as above
Scribble PDZ1 R762A = target: T6, Scribble PDZ1 R762A (human, UniProt Q14160 719-829, R762A); experiment: ITC; iTC200, 25°C, 20 mM HEPES pH 7.4; protein 50-100 μM in the cell, peptide 0.64-3 mM in the syringe; single-site fit, stoichiometry fixed to 0.8-1.1; n = 3
T6 construct: human Scribble, PDZ1, aa 719-829, in pETM-11, point mutant; Used for ITC; also called mutational background; source: E. coli BL21 Gold (DE3), purified (Ni2+ Sepharose), dialysed

[6] = target: B2; experiment: as above
[7] = target: T7, Scribble PDZ1 R762A/A743R (human, UniProt Q14160 719-829, R762A | A743R); experiment: as above
T7 construct: human Scribble, PDZ1, aa 719-829, A743R introduced in the background of R762A; also called R762A/A743R mutant; source: E. coli BL21 Gold (DE3), purified (Ni2+ Sepharose), dialysed

[8] = target: T5, FITC-RLTpSTRL (RPS6KA2 peptide, …); experiment: MST; FITC-labeled peptide fixed at 25-50 nM, untagged SHANK1 PDZ in a dilution series; PBS, 10 mM MgCl2, 0.05% Tween-20; n = 3

T6 sequence (Q14160 719-829 R762A): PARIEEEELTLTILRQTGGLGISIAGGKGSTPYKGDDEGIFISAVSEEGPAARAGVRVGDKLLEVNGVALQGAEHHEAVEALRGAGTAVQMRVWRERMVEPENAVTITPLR
T7 sequence (Q14160 719-829 A743R/R762A): as the sequence (Q14160 719-829 R762A) above, with A25R counted along it

## B1
[1]
  fold higher affinity than for the unphosphorylated peptide: 1.3 fold
[2]
  fold lower affinity than for the unphosphorylated peptide: 2.4 fold
[3]
  fold lower affinity than for the unphosphorylated peptide: 2.9 fold

## B2
[4]
  fold higher affinity than for the unphosphorylated peptide: 3 fold
[5]
  fold higher affinity than for the unphosphorylated peptide: 5 fold
[3]
  fold lower affinity than for the unphosphorylated peptide: 2 fold

## B3
Scribble PDZ1 R762A
  fold weaker affinity than the wild type: 6 fold
[6]
  fold higher affinity than for the unphosphorylated peptide: 5 fold
[7]
  binding result: binds

## B4
[8]
  fold lower affinity than for the unphosphorylated peptide: 3.6 fold
